Measurements as given in the nanobody polyreactivity screen of Harvey et al. (2022).

Assay: yeast display, Sf9 membrane polyspecificity reagent, FACS + sequencing; frameworks hold sequencing errors
How it was run: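 Sorting gates, low and high (top ~1%), were placed on anti-HA fluorescence to track expression and on streptavidin fluorescence to track reagent binding. A clone's polyreactivity label is taken from the gate it came out of. The reagent was 10% biotinylated, detergent-solubilized Sf9 membrane, applied for 1 hour at 4 °C to galactose-induced yeast display cells.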

Row | Sequence | polyreactivity (PSR sort gate)
1 | QVQLVESGGGLVQAGGSLRLSCAASGRTFGRNAMGWYRQAPGKERELVAAITWSGGRTYYADSVKGRFSISRDNAKNTVYLQMNSLKPEDTAVYYCARGSSSISIFYRYDYWGQGTQVTVSS | high polyreactivity
2 | QVQLVESGGGLVQAGGSLRLSCAASGRTFGRYAKGWSRQAPGKERELVAAISYSTDSTYYADSVKGRFTISRDNAKNTDYLQMNSLKPEYTAVYYCATDSVNVGSYVGDKHDYWGHGTQVTVSS | low polyreactivity
3 | QVQLVESGGGLVQAGGSLRLSCAASGRTFGRYAMGWYRQAPGKERELVAAISTSGGSTYYADSVKGRFTISRDNAKNTVYLQMNSLKPEDTAVYYCAATIGRRSYNQMYYWGQGTQVTVSS | high polyreactivity
4 | QVQLVESGGGLVQAGGSLRLSCAASGRTFGRYAMGWYRQAPGKERELVAAISYSTDSTYYADSVKGRFTISRDNAKNTVYLQMNSLKPEDTAVYYCAADRLRTSGYKTIYDYWGQGTQVTVSS | low polyreactivity
5 | QVQLVESGGGLVQAGGSLRLSCAASGRTFGRYAMGWYRQAPGKERELVAAITRSGGSTNYADSVKGRFTISRDNAKNTVYLQMNSLKPEDTAVYYCARRGYSVRTPEGYYWGQGTQVTVSS | high polyreactivity
6 | QVQLVESGGGLVQAGGSLRLSCAASGRTFGRYAMGWYRQAPGKERELVAGISGSVGITYYADSVKGRFTISRDNAKNTVYLQMNSLKPEDTAVYYCAVVARAGHKYDYWGQGTQVTVSS | low polyreactivity
7 | QVQLVESGGGLVQAGGSLRLSCAASGRTFGRYAMGWYRQAPGKERELVARIRTSGGRTYYADSVKGRFTISRDNAKYTVYLQMNSLKPEDTAVYYCATTSQPWYYWSTQGDDYWGQGTQVTVSS | low polyreactivity
8 | QVQLVESGGGLVQAGGSLRLSCAASGRTFGRYAMGWYRQAPGKERELVARISFTGGSTYADSVKGRFTISRDNAKNTVYLQMNSLKPEDTAVYYCNVPYYINHKFYDSPFVQRYDYWGQGTQVTVSS | low polyreactivity
9 | QVQLVESGGGLVQAGGSLRLSCAASGRTFGRYAMVWYRQAPGKEREFVASISRRGGTTYYADSVKGRFTISRDNAKNSVYLQMNSLKPEDTAVYYCNADRTVIYDYEYWGQGTQVTVSS | low polyreactivity
10 | QVQLVESGGGLVQAGGSLRLSCAASGRTFGRYLMGWYRQAPGKERLLVAAISFSGTGTYYADSVKGRFTISRDNAKYTVYLQMNSLKPEDTAVYYCAKGVTRVQYKHYYWGQGTQVTVSS | high polyreactivity
11 | QVQLVESGGGLVQAGGSLRLSCAASGRTFGRYSMGWYRQAPGKERELVAAISYSTDSTYYADSVKGRFTISRDNAKNTVYLQMNSLKPEDTAVYYCAALGYHRYRNYDYWGQGTQVTVSS | low polyreactivity
12 | QVQLVESGGGLVQAGGSLRLSCAASGRTFGSNAMGWYRQAPGKERELVANIDGGGGTYADSVKGRFTISRDNAKNTVYLQMNSLKPEDTAVYYCATRWSGYDMDYWGQGTQVTVSS | low polyreactivity
13 | QVQLVESGGGLVQAGGSLRLSCAASGRTFGSYAMGWYRPAPGKERELVAGISWSGGITYYADSVKGRFTISRDNAKNSVYLQMNSLKPEDTAVYYCAADSVVWEMEYWGQGTQVTVSS | high polyreactivity
14 | QVQLVESGGGLVQAGGSLRLSCAASGRTFGSYAMGWYRQAPGKEREFVAGISYGGGRTYYADSVKGRFTISRDNAKNTVYLQMNSLKPEDTAVYYCAADGVYRYNYPYLYTYDYWGQGTQVTVSS | low polyreactivity
15 | QVQLVESGGGLVQAGGSLRLSCAASGRTFGSYAMGWYRQAPGKERELVAAISRSGTNTYYADSVKGRFTISRDNAKNTVYLQMNSLKPEDTAVYYCATDFYFSSVLVWFSYGYWGQGTQVTVSS | low polyreactivity
16 | QVQLVESGGGLVQAGGSLRLSCAASGRTFGSYTMGWYRQAPGKERELVAAISWSGGRTYYADSVKGRFTISRDNAKNTVYLQMNSLKPEDTAVYYCNADAEVVPGEYDYWGQGTQVTVSS | low polyreactivity
17 | QVQLVESGGGLVQAGGSLRLSCAASGRTFGTNAMGWYRQAPGKERELVASIDLSADSTYYADSVKGRFTISRDNAKNNFYLQMNSLKPEDTAVYYCNKDGYPWPPNLDYWGQGTQVTVSS | low polyreactivity
18 | QVQLVESGGGLVQAGGSLRLSCAASGRTFGTNTMGWYRQAPGKEREFVATITSSGGSTYYADSVKGRFTISRDNAKNTVYVQINSLKPEATAVYYCATDPYGGNTLYPSLRYDYWGQGTQVTVSS | low polyreactivity
19 | QVQLVESGGGLVQAGGSLRLSCAASGRTFGTYAMGWYRQAPGKERELVAAITSGTRTYYADSVKGRFTISRDNAKNTVYLQMNSLKPEDTAVYDCAAGLVYRWSSTPRRLYYYWGQGTQVTVSS | high polyreactivity
20 | QVQLVESGGGLVQAGGSLRLSCAASGRTFGVNAMGWYRQAPGKERELVAAISRSGGSTYYADSVKGRFTISRDNAKNTVYLQMNSLKPEDTAVYYCAKSYFGNHLTGFGYWGQGTQVTVSS | low polyreactivity
21 | QVQLVESGGGLVQAGGSLRLSCAASGRTFGVYAMGSYRQAPGKEREFVATIRTTGSTNYADSVKGRFTISRDNAKNTVYLQMNSLKTEDTAVYYCAARQRQSKYYPYTTFTYDYWGQGTQVTVSS | high polyreactivity
22 | QVQLVESGGGLVQAGGSLRLSCAASGRTFGVYAMGWYRQAPGKERELVAAIRWSGGGTYYADSVKGRFTISRDNAKNTVYLQMISLKPEDTAVYYCAATFQNSPYTRYTDMYYWGQGTQVTVSS | low polyreactivity
23 | QVQLVESGGGLVQAGGSLRLSCAASGRTFGWNAMGWYRQAPGKERELVAAISLRGTSTYYADSVKGRFTISRDNAKNTVYLQMNSLKPEDTAVYYCAARGRNGVNYWGQGTQVTVSS | high polyreactivity
24 | QVQLVESGGGLVQAGGSLRLSCAASGRTFGWYAMGWYRQAPGKERELVAAITSGTSTYYADSVKGRFTISRDNAKNTVYLQMNSLKPEDTAVYYCAAQQGISNGTGVSATNPMDYWGQGTQVTVSS | low polyreactivity
25 | QVQLVESGGGLVQAGGSLRLSCAASGRTFGWYAMGWYRQAPGKERELVAAITSGTSTYYADSVKGRFTISRDNAKNTVYLQMYSLKPEDTAVYYCAVDRGISVGYTRFDYWGQGTEVTVSS | low polyreactivity
26 | QVQLVESGGGLVQAGGSLRLSCAASGRTFGWYTMGWYRHAPGKERELVAAISRSGTSTYYADSVKGRFTISRDNAKNTVYLQMHSLKPEDTAVYYCAQYVNARGGNDWGQGTLVTVSS | high polyreactivity
27 | QVQLVESGGGLVQAGGSLRLSCAASGRTFGWYTMGWYRKAPGKVRELVAGISSSGGSTYYADSVKGRFTISRDNAKNTVYLQMNSLKPEDTAVYYCARETYPHGLYYRPYDYWGQGTQVTVSS | low polyreactivity
28 | QVQLVESGGGLVQAGGSLRLSCAASGRTFGWYTMGWYRQAPGKEREFVAAISSSDTSTYYADSVKGRFTISRDNAKNTVYLQMNSLKPEDTAVYYCAADPPSWLWFVGYSYDYWGQGTQVTVTS | low polyreactivity
29 | QVQLVESGGGLVQAGGSLRLSCAASGRTFGYNAMGWYRQAPGKERELVAAIRYSGGSTYYADSVKGRFTISRDNAKNTVYLQMNSLKPEDTAVYYCAKETRRYYRGYYYWGQGTQVTVSS | high polyreactivity
30 | QVQLVESGGGLVQAGGSLRLSCAASGRTFGYNAMGWYRQAPGKERELVAAISSSGGSTYYADSVKGRFTISRDNAKNTVYLQMNSLKPEDTAVYYCATQGYSWAHGSDYWGQGTQVTVSS | low polyreactivity
